Test results published in patent US20120034160A1 (AbbVie / Abbott, published 2012).

T1: Recombinant Human IL-17 (human, UniProt Q16552 20-155, limits assumed)
T1 construct: bought reagent
T1 sequence (looked up): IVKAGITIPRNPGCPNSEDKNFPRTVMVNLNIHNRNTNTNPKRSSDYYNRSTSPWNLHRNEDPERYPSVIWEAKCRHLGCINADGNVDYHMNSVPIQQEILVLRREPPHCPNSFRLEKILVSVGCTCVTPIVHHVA


What was measured:
Recombinant Human IL-17 = target: T1, Recombinant Human IL-17; assay: Biacore SPR; N-terminal VD
Protocol: (§1) The BIACORE assay (Biacore, Inc, Piscataway, N.J.) determines the affinity of antibodies or DVD-Ig with kinetic measurements of on-rate and off-rate constants. Binding of antibodies or DVD-Ig to a target antigen (for example, a purified recombinant target antigen) was determined by surface plasmon resonance-based measurements with a Biacore® 1000 or 3000 instrument (Biacore® AB, Uppsala, Sweden) using running HBS-EP (10 mM HEPES [pH 7.4], 150 mM NaCl, 3 mM EDTA, and 0.005% surfactant P20) at 25° C. All chemicals were obtained from Biacore® AB (Uppsala, Sweden) or otherwise from a different source as described in the text. For example, approximately 5000 RU of goat anti-mouse IgG, (Fcγ), fragment specific polyclonal antibody (Pierce Biotechnology Inc, Rockford, Ill.) diluted in 10 mM sodium acetate (pH 4.5) was directly immobilized across a CM5 research grade biosensor chip using a standard amine coupling kit according to manufacturer's instructions and procedures at 25 μg/ml. Unreacted moieties on the biosensor surface were blocked with ethanolamine. Modified carboxymethyl dextran surface in flowcell 2 and 4 was used as a reaction surface. Unmodified carboxymethyl dextran without goat anti-mouse IgG in flow cell 1 and 3 was used as the reference surface. For kinetic analysis, rate equations derived from the 1:1 Langmuir binding model were fitted simultaneously to association and dissociation phases of all eight injections (using global fit analysis) with the use of Biaevaluation 4.0.1 software. Purified antibodies or DVD-Ig were diluted in HEPES-buffered saline for capture across goat anti-mouse IgG specific reaction surfaces. Antibodies or DVD-Ig to be captured as a ligand (25 μg/ml) were injected over reaction matrices at a flow rate of 5 μl/min. The association and dissociation rate constants, kₒₙ (M⁻¹s⁻¹) and koff (s⁻¹) were determined under a continuous flow rate of 25 μl/min. Rate constants were derived by making kinetic binding measurements at different antigen concentrations ranging from 10−200 nM. The equilibrium dissociation constant (M) of the reaction between antibodies or DVD-Igs and the target antigen was then calculated from the kinetic rate constants by the following formula: KD=koff/kₒₙ. Binding was recorded as a function of time and kinetic rate constants are calculated.

Recombinant Human IL-1β = target: T2, Recombinant Human IL-1β (human, UniProt P01584 117-269); assay: Biacore SPR; C-terminal VD
T2 construct: bought reagent; also called IL-1B
Protocol: as §1

| Kd (Recombinant Human IL-17) | koff (Recombinant Human IL-17) | kon (Recombinant Human IL-17) | Kd (Recombinant Human IL-1β) | koff (Recombinant Human IL-1β) | kon (Recombinant Human IL-1β) | Binder |
| --- | --- | --- | --- | --- | --- | --- |
| 0.0026 nM | 9.7e-06 s⁻¹ | 3.8e+06 M⁻¹ s⁻¹ | 0.29 nM | 0.00037 s⁻¹ | 1.3e+06 M⁻¹ s⁻¹ | DVD1604 (bispecific antibody, human IgG1, kappa, DVD-Ig, outer AB274, inner AB270, linker set 2; V1 wt hIgG1, V2 kappa; also called DVD1604H; DVD1604L) heavy: not shown light: EIVLTQSPDFQSVTPKEKVTITCRASQDIGSELHWYQQKPDQPPKLLIKYASHSTSGVPSRFSGSGSGTDFTLTINGLEAEDAGTYYCHQTDSLPYTFGPGTKVDIKRTVAAPSVFIFPPDTQVTQSPSSLSASVGDRVTITCITSTDIDVDMNWYQQKPGKPPKLLISQGNTLRPGVPSRFSSSGSGTDFTFTISSLQPEDFATYYCLQSDNLPLTFGQGTKLEIKRTVAAPSVFIFPPSDEQLKSGTASVVCLLNNFYPREAKVQWKVDNALQSGNSQESVTEQDSKDSTYSLSSTLTLSKADYEKHKVYACEVTHQGLSSPVTKSFNRGEC |
| 0.0026 nM | 1.2e-05 s⁻¹ | 4.8e+06 M⁻¹ s⁻¹ | 0.37 nM | 0.00056 s⁻¹ | 1.5e+06 M⁻¹ s⁻¹ | DVD1608 (bispecific antibody, human IgG1, kappa, DVD-Ig, outer AB274, inner AB272, linker set 2; V1 wt hIgG1, V2 kappa; also called DVD1608H; DVD1608L) heavy: not shown light: EIVLTQSPDFQSVTPKEKVTITCRASQDIGSELHWYQQKPDQPPKLLIKYASHSTSGVPSRFSGSGSGTDFTLTINGLEAEDAGTYYCHQTDSLPYTFGPGTKVDIKRTVAAPSVFIFPPETTVTQSPSSLSASVGDRVTITCITSTDIDVDMNWYQQKPGKPPKLLISQGNTLRPGVPSRFSSSGSGTDFTFTISSLQPEDFATYYCLQSDNLPLTFGQGTKLEIKRTVAAPSVFIFPPSDEQLKSGTASVVCLLNNFYPREAKVQWKVDNALQSGNSQESVTEQDSKDSTYSLSSTLTLSKADYEKHKVYACEVTHQGLSSPVTKSFNRGEC |
| 0.019 nM | 6.3e-05 s⁻¹ | 3.2e+06 M⁻¹ s⁻¹ | 0.26 nM | 0.00062 s⁻¹ | 2.4e+06 M⁻¹ s⁻¹ | DVD1618 (bispecific antibody, human IgG1, kappa, DVD-Ig, outer AB275, inner AB272, linker set 2; V1 wt hIgG1, V2 kappa; also called DVD1618H; DVD1618L) heavy: not shown light: EIVLTQSPDFQSVTPKEKVTITCRASQNIGSELHWYQQKPDQSPKLLIKYASHSISGVPSRFSGSGSGTDFTLTINGLEAEDAATYYCHQSDTLPHTFGQGTKVDIKRTVAAPSVFIFPPETTVTQSPSSLSASVGDRVTITCITSTDIDVDMNWYQQKPGKPPKLLISQGNTLRPGVPSRFSSSGSGTDFTFTISSLQPEDFATYYCLQSDNLPLTFGQGTKLEIKRTVAAPSVFIFPPSDEQLKSGTASVVCLLNNFYPREAKVQWKVDNALQSGNSQESVTEQDSKDSTYSLSSTLTLSKADYEKHKVYACEVTHQGLSSPVTKSFNRGEC |
| 0.014 nM | 4.8e-05 s⁻¹ | 3.5e+06 M⁻¹ s⁻¹ | 0.18 nM | 0.0003 s⁻¹ | 1.7e+06 M⁻¹ s⁻¹ | DVD1614 (bispecific antibody, human IgG1, kappa, DVD-Ig, outer AB275, inner AB270, linker set 2; V1 wt hIgG1, V2 kappa; also called DVD1614H; DVD1614L) heavy: not shown light: EIVLTQSPDFQSVTPKEKVTITCRASQNIGSELHWYQQKPDQSPKLLIKYASHSISGVPSRFSGSGSGTDFTLTINGLEAEDAATYYCHQSDTLPHTFGQGTKVDIKRTVAAPSVFIFPPDTQVTQSPSSLSASVGDRVTITCITSTDIDVDMNWYQQKPGKPPKLLISQGNTLRPGVPSRFSSSGSGTDFTFTISSLQPEDFATYYCLQSDNLPLTFGQGTKLEIKRTVAAPSVFIFPPSDEQLKSGTASVVCLLNNFYPREAKVQWKVDNALQSGNSQESVTEQDSKDSTYSLSSTLTLSKADYEKHKVYACEVTHQGLSSPVTKSFNRGEC |
| 0.0019 nM | 7.1e-06 s⁻¹ | 3.8e+06 M⁻¹ s⁻¹ | 0.29 nM | 9.4e-05 s⁻¹ | 330000 M⁻¹ s⁻¹ | DVD1620 (bispecific antibody, human IgG1, kappa, V1 wt hIgG1, V2 kappa; also called DVD1620H; DVD1620L) heavy: not shown light: DIQMTQSPSSLSASVGDRVTITCRASSGIISYIDWFQQKPGKAPKRLIYATFDLASGVPSRFSGSGSGTDYTLTISSLQPEDFATYYCRQVGSYPETFGQGTKLEIKRTVAAPDIQMTQSPSSLSASVGDRVTITCRASGNIHNYLTWYQQTPGKAPKLLIYNAKTLADGVPSRFSGSGSGTDYTFTISSLQPEDIATYYCQHFWSIPYTFGQGTKLQITRTVAAPSVFIFPPSDEQLKSGTASVVCLLNNFYPREAKVQWKVDNALQSGNSQESVTEQDSKDSTYSLSSTLTLSKADYEKHKVYACEVTHQGLSSPVTKSFNRGEC |
| 0.00067 nM | 3e-06 s⁻¹ | 4.4e+06 M⁻¹ s⁻¹ | 0.32 nM | 0.00044 s⁻¹ | 1.4e+06 M⁻¹ s⁻¹ | DVD1606 (bispecific antibody, human IgG1, kappa, DVD-Ig, outer AB274, inner AB271, linker set 2; V1 wt hIgG1, V2 kappa; also called DVD1606H; DVD1606L) heavy: not shown light: EIVLTQSPDFQSVTPKEKVTITCRASQDIGSELHWYQQKPDQPPKLLIKYASHSTSGVPSRFSGSGSGTDFTLTINGLEAEDAGTYYCHQTDSLPYTFGPGTKVDIKRTVAAPSVFIFPPDTVVTQSPAFLSVTPGEKVTITCITSTDIDVDMNWYQQKPDQPPKLLISQGNTLRPGVPSRFSSSGSGTDFTFTISSLEAEDAATYYCLQSDNLPLTFGQGTKLEIKRTVAAPSVFIFPPSDEQLKSGTASVVCLLNNFYPREAKVQWKVDNALQSGNSQESVTEQDSKDSTYSLSSTLTLSKADYEKHKVYACEVTHQGLSSPVTKSFNRGEC |
| 0.015 nM | 4.9e-05 s⁻¹ | 3.3e+06 M⁻¹ s⁻¹ | 0.22 nM | 0.00036 s⁻¹ | 1.6e+06 M⁻¹ s⁻¹ | DVD1616 (bispecific antibody, human IgG1, kappa, DVD-Ig, outer AB275, inner AB271, linker set 2; V1 wt hIgG1, V2 kappa; also called DVD1616H; DVD1616L) heavy: not shown light: EIVLTQSPDFQSVTPKEKVTITCRASQNIGSELHWYQQKPDQSPKLLIKYASHSISGVPSRFSGSGSGTDFTLTINGLEAEDAATYYCHQSDTLPHTFGQGTKVDIKRTVAAPSVFIFPPDTVVTQSPAFLSVTPGEKVTITCITSTDIDVDMNWYQQKPDQPPKLLISQGNTLRPGVPSRFSSSGSGTDFTFTISSLEAEDAATYYCLQSDNLPLTFGQGTKLEIKRTVAAPSVFIFPPSDEQLKSGTASVVCLLNNFYPREAKVQWKVDNALQSGNSQESVTEQDSKDSTYSLSSTLTLSKADYEKHKVYACEVTHQGLSSPVTKSFNRGEC |
| ≤ 0.0038 nM | < 1e-06 s⁻¹ | 2.8e+06 M⁻¹ s⁻¹ | 0.55 nM | 9.4e-05 s⁻¹ | 170000 M⁻¹ s⁻¹ | DVD1600 (bispecific antibody, human IgG1, kappa, V1 wt hIgG1, V2 kappa; also called DVD1600H; DVD1600L) heavy: not shown light: EIVLTQSPDFQSVTPKEKVTITCRASQDIGSELHWYQQKPDQPPKLLIKYASHSTSGVPSRFSGSGSGTDFTLTINGLEAEDAGTYYCHQTDSLPYTFGPGTKVDIKRTVAAPSVFIFPPDIQMTQSPSSLSASVGDRVTITCRASGNIHNYLTWYQQTPGKAPKLLIYNAKTLADGVPSRFSGSGSGTDYTFTISSLQPEDIATYYCQHFWSIPYTFGQGTKLQITRTVAAPSVFIFPPSDEQLKSGTASVVCLLNNFYPREAKVQWKVDNALQSGNSQESVTEQDSKDSTYSLSSTLTLSKADYEKHKVYACEVTHQGLSSPVTKSFNRGEC |
| 0.017 nM | 5.7e-05 s⁻¹ | 3.5e+06 M⁻¹ s⁻¹ | 0.25 nM | 7.3e-05 s⁻¹ | 290000 M⁻¹ s⁻¹ | DVD1610 (bispecific antibody, human IgG1, kappa, V1 wt hIgG1, V2 kappa; also called DVD1610H; DVD1610L) heavy: not shown light: EIVLTQSPDFQSVTPKEKVTITCRASQNIGSELHWYQQKPDQSPKLLIKYASHSISGVPSRFSGSGSGTDFTLTINGLEAEDAATYYCHQSDTLPHTFGQGTKVDIKRTVAAPSVFIFPPDIQMTQSPSSLSASVGDRVTITCRASGNIHNYLTWYQQTPGKAPKLLIYNAKTLADGVPSRFSGSGSGTDYTFTISSLQPEDIATYYCQHFWSIPYTFGQGTKLQITRTVAAPSVFIFPPSDEQLKSGTASVVCLLNNFYPREAKVQWKVDNALQSGNSQESVTEQDSKDSTYSLSSTLTLSKADYEKHKVYACEVTHQGLSSPVTKSFNRGEC |
| 0.0051 nM | 1.4e-05 s⁻¹ | 2.7e+06 M⁻¹ s⁻¹ | 0.18 nM | 2.3e-05 s⁻¹ | 130000 M⁻¹ s⁻¹ | DVD1602 (bispecific antibody, human IgG1, kappa, V1 wt hIgG1, V2 kappa; also called DVD1602H; DVD1602L) heavy: not shown light: EIVLTQSPDFQSVTPKEKVTITCRASQDIGSELHWYQQKPDQPPKLLIKYASHSTSGVPSRFSGSGSGTDFTLTINGLEAEDAGTYYCHQTDSLPYTFGPGTKVDIKRTVAAPSVFIFPPDIQMTQSPSSLSASVGDRVTITCRASGNIHNYLTWYQQTPGKAPKLLIYNAKTLADGVPSRFSGSGSGTDYTFTISSLQPEDIATYYCQHFWSIPYTFGQGTKLQITRTVAAPSVFIFPPSDEQLKSGTASVVCLLNNFYPREAKVQWKVDNALQSGNSQESVTEQDSKDSTYSLSSTLTLSKADYEKHKVYACEVTHQGLSSPVTKSFNRGEC |
| 0.016 nM | 5.1e-05 s⁻¹ | 3.2e+06 M⁻¹ s⁻¹ | 0.15 nM | 2.5e-05 s⁻¹ | 160000 M⁻¹ s⁻¹ | DVD1612 (bispecific antibody, human IgG1, kappa, V1 wt hIgG1, V2 kappa; also called DVD1612H; DVD1612L) heavy: not shown light: EIVLTQSPDFQSVTPKEKVTITCRASQNIGSELHWYQQKPDQSPKLLIKYASHSISGVPSRFSGSGSGTDFTLTINGLEAEDAATYYCHQSDTLPHTFGQGTKVDIKRTVAAPSVFIFPPDIQMTQSPSSLSASVGDRVTITCRASGNIHNYLTWYQQTPGKAPKLLIYNAKTLADGVPSRFSGSGSGTDYTFTISSLQPEDIATYYCQHFWSIPYTFGQGTKLQITRTVAAPSVFIFPPSDEQLKSGTASVVCLLNNFYPREAKVQWKVDNALQSGNSQESVTEQDSKDSTYSLSSTLTLSKADYEKHKVYACEVTHQGLSSPVTKSFNRGEC |
